Data: the supplement of paper PMC9170038

Tested on: MS2 coat protein
Assay: apparent KD of MS2 coat protein; designed switch direction (-1 OFF switch, 1 ON switch): -1; higher = weaker reporter binding
How it was run: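 Each step of the titration lasted 0.8–1.5 h at the lowest concentration and 10–20 min at the highest. The protein, SNAP-549-labelled MS2 coat protein, went from 0.7 or 1.5 nM doubling to 3 µM over RNA switches transcribed on Illumina chips by stalled E. coli RNA polymerase. Normalised cluster fluorescence was curve-fitted, and the per-design median over clusters is given as apparent KD.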

[1] = input ligand: microRNA oligo, concentration not stated
[2] = Eterna round: R95, input ligand: FMN 200 uM
[3] = Eterna round: R95, input ligand: microRNA oligo, concentration not stated
[4] = Eterna round: R95, input ligand: none

| Sequence | apparent KD of MS2 coat protein (input ligand: FMN 200 uM) [nM] | apparent KD of MS2 coat protein [1] [nM] | apparent KD of MS2 coat protein (input ligand: none) [nM] | apparent KD of MS2 coat protein [2] [nM] | apparent KD of MS2 coat protein [3] [nM] | apparent KD of MS2 coat protein [4] [nM] |
| --- | --- | --- | --- | --- | --- | --- |
| UUAAAUCAUGUAGGAUAUGCGUGGCGAAGCUAUGCAGAAGGACAUGAGGAUCACCCAUGUUCUUGCGUCUGCGUACAGAUGCGG [Exclusion NG 1] (Eterna round: R96, puzzle: Exclusion NG 1) | 175 | 20 | 25.9 | – | – | – |
| UUAACGUGGGCGUCCCACAGCAAGCUUUUUGCUCGUUUAACAUGAGGAUCACCCAUGUCGCUGCGGGAUCCCUAUGA [Abeisat] (puzzle: Sensor v3, turn-off variant 2) | – | – | – | 13.5 | 13.1 | 11.6 |
| UUAAUGGUUGUGAGGAUAUCGGAUAGAUAGAUAUUCGAGAAGGCACAUGAGGAUCACCCAUGUGUGAUUAGAAA [JR_BMEx4_Sub049] (Eterna round: R97, puzzle: Brourd's mod of Exclusion 4) | 260 | – | 24.6 | – | – | – |
| UUAAUUAAUGUGAGGAUAUCUAGAGCCUCGGCUCUAGAGAAGGCACAUGAGGAUCACCCAUGUCUCAAUUAAUU [BmEx4/2-E2] (Eterna round: R97, puzzle: Brourd's mod of Exclusion 4) | 33.9 | – | 23.6 | – | – | – |
| UUAAUUCGGAUUCUUGAAAUACAUGAGGAUCACCCAUGUUCACAGGAUAUUGAUUAAGUUAGUAACAAGAAGGGUGUAACAUAA [JR_ExcNG3_Sub035] (Eterna round: R96, puzzle: Exclusion NG 3) | 57.8 | 17.6 | 22.9 | – | – | – |
| UUAAUUUUAGGAUAUACAUGAGGAUCACCCAUGUGGCGGGCCAUGAUGGAGCGUACCAGUAGAAGGAAGAACAG [Eternabot (L2) Solution 43] (Eterna round: R97, puzzle: Exclusion 3) | 69.2 | – | 73.2 | – | – | – |
| UUACGGAUAGAGGAUAUAUUAAGGAAGGUUUCGAUAGAAGGCUAGACAUGAGGAUCACCCAUGUAUAUUGGGAU [JR_Ex6_Sub073] (Eterna round: R97, puzzle: Exclusion 6) | 164 | – | 97.9 | – | – | – |
| UUAGCGUAAGUAAGGAUAUGCUGGUCGAAAGACCAGCAGAAGGUACAUGAGGAUCACCCAUGUUGAUUCGUUGC [Mod of JL 13 - Jieux - Brourd's mod of Exclusion 4] (Eterna round: R97, puzzle: Brourd's mod of Exclusion 4) | 284 | – | 39.7 | – | – | – |
| UUAGUGUAAGGAUAUCCUAUUACGAAGUAGCAACGGUAGAGGGAGAAGGUACAUGAGGAUCACCCAUGUGUCGC [Eternabot (L2) Solution 38] (Eterna round: R97, puzzle: Exclusion 4) | 26.3 | – | 24.5 | – | – | – |
| UUAUAAACAUAGGAUAUCGAAUAAAUUAUUUAACGAGAAGGAUGAACAUGAGGAUCACCCAUGUGGUAUCAUGG [Mat - Exclusion 6 - JL Mod - D30] (puzzle: Exclusion 6) | – | – | – | 170 | 228 | 398 |
| UUAUACGCUGAGGAUAUUAUCACUGAGAGGUGAUGAGAAGGCGGUACAUGAGGAUCACCCAUGUCUAUGGGCAG [Ex-6 Malc#22] (puzzle: Exclusion 6) | – | – | – | – | 237 | – |
| UUAUAUAGGUAGGAUAUCGAUUUUAAUUAAUAUCGAGAAGGGUCAACAUGAGGAUCACCCAUGUCAGCAUGUAU [LRO-Excl6-04-Rocketman] (Eterna round: R97, puzzle: Exclusion 6) | 60 | – | 55.1 | – | – | – |
| UUAUAUAGUGUGAGGAUAUGCUGGUCCUUGGAUCAGCAGAAGGCACAUGAGGAUCACCCAUGUAGUUAAUUUUA [JL bmx4 3.03] (puzzle: Brourd's mod of Exclusion 4) | – | – | – | 118 | 25.2 | 29 |
| UUAUCCGCUGAGGAUAUUAUCACUGAGAGGUGAUGAGAAGGCGGUACAUGAGGAUCACCCAUGUCUAUGGGCAG [Ex-6 Malc#23] (puzzle: Exclusion 6) | – | – | – | 584 | 228 | 864 |
| UUAUUAUAUGUAGGAUAUGCAUAUUAUUAUUAUGCAGAAGGACAUGAGGAUCACCCAUGUAUAUUAUUAUUAUAUAUUAUAUGU [Title] (Eterna round: R96, puzzle: Exclusion NG 1) | – | 33.8 | – | – | – | – |
| UUAUUAUAUGUAGGAUAUGCAUAUUAUUAUUGUGCAGAAGGACAUGAGGAUCACCCAUGUAUAUUAUUAUUAUAUAUUAUAUAU [Title] (Eterna round: R96, puzzle: Exclusion NG 1) | – | 26.5 | – | – | – | – |
| UUAUUAUAUGUAGGAUAUGCAUAUUGUUGUUAUGCAGAAGGACAUGAGGAUCACCCAUGUAUAUUAUUGUUAUAUAUUGUAUAU [Title] (Eterna round: R96, puzzle: Exclusion NG 1) | – | 18.2 | – | – | – | – |
| UUAUUAUAUGUAGGAUAUGCAUAUUGUUGUUAUGCAGAAGGACAUGAGGAUCACCCAUGUAUAUUAUUGUUGUGUAUUAUAUAU [Title] (Eterna round: R96, puzzle: Exclusion NG 1) | 57.1 | 29.1 | 33 | – | – | – |

| Sequence | apparent KD of MS2 coat protein (input ligand: FMN 200 uM) [nM] | apparent KD of MS2 coat protein [1] [nM] | apparent KD of MS2 coat protein (input ligand: none) [nM] | apparent KD of MS2 coat protein [2] [nM] | apparent KD of MS2 coat protein [3] [nM] | apparent KD of MS2 coat protein [4] [nM] |
| --- | --- | --- | --- | --- | --- | --- |
| UUAUUUAGGUAGGAUAUCGAUAUUAAUUAUUAUCGAGAAGGGUCUACAUGAGGAUCACCCAUGUUAGCAUGUUU [LRO-Excl6-09-Rocketman] (Eterna round: R97, puzzle: Exclusion 6) | 23.3 | – | 29.3 | – | – | – |
| UUCAUGUAAGGAUAUCGUGCAAGUUUCAAAAGAGGCUUGUGCGAGAAGGUACAUGAGGAUCACCCAUGUAGGUU [Omei Ex4 B9] (Eterna round: R97, puzzle: Exclusion 4) | 86.9 | – | 754 | – | – | – |
| UUCCGGUGAGGAUAUUGCACGGUGGGAGAGAGCGCCACUGUCAAGAAGGUACAUGAGGAUCACCCAUGUGAGUA [Eternabot (L1) Solution 24] (Eterna round: R97, puzzle: Exclusion 4) | 21.1 | – | 25.1 | – | – | – |
| UUCCUACAUGAGGAUCACCCAUGUCAGGAUAUCUCCUCACCGCGAAUGGGCAGUGAAUAGAGAAGGGACAGGAA [Aner] (puzzle: Exclusion 1) | – | – | – | – | 13.5 | – |
| UUCCUCGUUGUGAGGAUAUCGUCCGUGUUUUGUUACGAGAAGGCACAUGAGGAUCACCCAUGUUAUUUGAUUUU [JR_BMOE4_Sub074] (puzzle: Brourd's mod of Exclusion 4) | – | – | – | 83.6 | 36.8 | 37.9 |
| UUCCUCGUUGUGAGGAUAUCGUCCUAUUUUUGUUACGAGAAGGCACAUGAGGAUCACCCAUGUUACUUGAUGUU [JR_BMOE4_Sub071] (Eterna round: R96, puzzle: Brourd's mod of Exclusion 4) | 188 | 21.1 | 26 | – | – | – |
| UUCCUCGUUGUGAGGAUAUCGUCCUAUUUUUGUUACGAGAAGGCACAUGAGGAUCACCCAUGUUACUUGAUGUU [JR_BMOE4_Sub071] (puzzle: Brourd's mod of Exclusion 4) | – | – | – | – | 21.2 | – |
| UUCGUGCAGCUUUGCUGUACGCGUACAUGAGGAUCACCCAUGUAGGAUAUGGUAGGCUUUGCUUACUAGAAGGAUAUGGUGAGC [JL EXNG3 1.33] (Eterna round: R96, puzzle: Exclusion NG 3) | 85.6 | 37.2 | 36.1 | – | – | – |
| UUCUUGGCAGGAUAUGCUCUCUUAGACAUGAGGAUCACCCAUGUGUUCAUUCUUUCUUUUGCAGAAGGGCCUUAAU [JR_E5_Sub045] (puzzle: Exclusion 5) | – | – | – | – | 52.6 | – |
| UUCUUGGCAGGAUAUGCUUUUUUAGACAUGAGGAUCACCCAUGUGUUUAUUUUUUUUUUUGCAGAAGGGCCUUAAU [JR_E5_Sub043] (puzzle: Exclusion 5) | – | – | – | – | 26.9 | – |
| UUGAGUCGGAAGGAUAUGCGAGCCGCCGGGUCAGCAGAAGGUCCGACAUGAGGAUCACCCAUGUUGGGCGAGGA [EX6 B.10] (Eterna round: R97, puzzle: Exclusion 6) | 351 | – | 25.2 | – | – | – |
| UUGAUGUCAUCAGGAUAUAGUAUUUAAGACAUAUCUUCUUUCAAACAUGAGGAUCACCCAUGUCGCUAGAAGGGAUUAUUGAUU [JR_ExcNG2_Sub083] (Eterna round: R96, puzzle: Exclusion NG 2) | – | 11.4 | – | – | – | – |
| UUGAUUGGUGUAGGAUAUGUAUGAGGAUCACCCAUUAAUAAAUUUUAACCACGAGGAUCACCCGUGUAGAAGGACAUUGGUCAA [pwkr exNG2 2xF5 1xFMN.19] (Eterna round: R96, puzzle: Exclusion NG 2) | 33.1 | 23.5 | 38.4 | – | – | – |
| UUGAUUGGUGUAGGAUAUGUAUGAGGAUCACCCAUUAAUAAAUUUUAACCACGAGGAUCACCCGUGUAGAAGGACAUUGGUUAU [pwkr exNG2 2xF5 1xFMN.21] (Eterna round: R96, puzzle: Exclusion NG 2) | 51.9 | 37.8 | 59.3 | – | – | – |
| UUGCCGCAAGGAUAUGCAGACAAGUACAAUACGUGUCUCGGACUUGAGGAUCACCCAAGUAGAAGGCUUUUUAU [LRO-Excl2-14-mod _r4_621 by salish99] (Eterna round: R97, puzzle: Exclusion 2) | 23.7 | – | 21.4 | – | – | – |
| UUGGAACGAGGAUAUCGAUGGUGGAACAUGAGGAUCACCCAUGUAUGAGAUAGUGUAGUUCGAGAAGGCGUUAAGU [JR_E5_Sub054] (puzzle: Exclusion 5) | – | – | – | 24.1 | 40.3 | 48.9 |
| UUGUAUAUCUAUGGGAGUAACAUGAGGAUCACCCAUGUAUGUCUUGUUUUUUGUUCGUCAUAGGCCAAUUGAAUGGU [JR_SV3TOV1_Sub026] (puzzle: Sensor v3, turn-off variant 1) | – | – | – | 25.9 | 34.5 | 28.9 |
